B1: anti-renalase monoclonal antibody 1F-26-1 (antibody, V domains shown)
VH: QSVKESEGGLFKPTDTLTLTCTVSGFSLSSYGVTWVRQAPGNGLEWIGLIGDRGTTFYASWAKSRSTITRNTNLNTVTLKMTRLTAADTATYFCARGSGYGARIWGPGTLVTVSS
VL: AQVLTQTPSPVSAAVGGTVTINCQSSQSVYKNNYLAWYQQKPGQPPKLLIYETSKLASGVPPRFSGSGSGTQFTLTISSVQCDDAATYYCQGGYSGVDFMAFGGGTEVVVKG
notes: Rabbit monoclonal IgG raised against peptide 1F; Biotinylated in the Biacore study; also called Bio-1F 26-1
B2: anti-renalase monoclonal antibody 1F-42-7 (antibody, V domains shown)
VH: B1 VH with S29T, S30T, F57Y, A62V, K63N, S64G, S114A
VL: B1 VL with V11M, V15L, S28T, K31N, A36S, A57S
notes: Rabbit monoclonal IgG raised against peptide 1F; Biotinylated in the Biacore study; also called Bio-1F 42-7
B3: anti-renalase monoclonal antibody 1D-28-4 (antibody, V domains shown)
VH: QSVEESGGRLVTPGTPLTLTCTVSGFSLSSFAVGWVRQAPGKGLEYIGIISSVGITRYASWAAGRFTISKTSTTVDLKITSPTTEDTATYFCARYGYSGDVNRLDLWGQGTLVTVSS
VL: AQVLTQTASPVSAAVGGTVTINCQASQSVYDNNNLAWYQQKPGQPPKQLIYGASTLASGVSSRFKGSGSGTQFTLTISGVQCDDAATYYCLGEFSCSSADCFAFGGGTEVVVKG
notes: Rabbit monoclonal IgG raised against peptide 1D (RP-220); also called m28-RNLS; Bio-1D 28-4
B4: anti-renalase monoclonal antibody 1D-37-10 (antibody, V domains shown)
VH: QSVEESGGRLVTPGGSLTLTCTVSGFSLSDYAIIWVRQAPGKGLEYIAIIGSSGDTFYATWAKGRFTISKTSTTVDLKMTSLTAADTATYFCAPRYAGTTDYHDAFDPWGPGTLVTVSS
VL: EVVMTQTPASMEAPMGGTVTIKCQASQNIYNYLSWYQQKPGQPPKLLVYKASTLTSGVPSRFKGSGSGTQFTLTISDLECADAATYYCQINYSIYNHYNIIFGGGTEVVVKG
notes: Rabbit monoclonal IgG raised against peptide 1D (RP-220); Biotinylated in the Biacore study; also called m37-RNLS; Bio-1D 37-10

Changes are numbered by the printed parent chain.

Broadly, the Kd is a measure of binding affinity in units of concentration. Low values mean tighter binding, high ones weaker binding. A word on the koff: it is the rate constant with which the complex falls apart. A lower koff goes with slow dissociation. Usually kon stands for the second-order rate constant of association. Low values mean slower complex formation, high ones faster complex formation.

For this assay, the target named is T1, human renalase-1 (Homo sapiens, UniProt Q5VYX0 18-342, limits assumed).
T1 construct: Whole entry named for renalase-1 (Glu at position 37); also called R1; HuRenalase-1
T1 sequence (Q5VYX0 18-342 limits assumed): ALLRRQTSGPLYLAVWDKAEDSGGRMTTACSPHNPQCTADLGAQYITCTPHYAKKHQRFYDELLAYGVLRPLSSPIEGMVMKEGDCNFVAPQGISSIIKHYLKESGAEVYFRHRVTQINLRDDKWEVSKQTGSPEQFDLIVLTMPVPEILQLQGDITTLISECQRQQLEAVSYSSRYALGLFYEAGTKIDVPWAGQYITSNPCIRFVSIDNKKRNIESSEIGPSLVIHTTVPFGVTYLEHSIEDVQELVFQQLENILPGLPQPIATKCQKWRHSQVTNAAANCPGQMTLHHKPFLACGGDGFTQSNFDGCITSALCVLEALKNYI
As to the kind of experiment: SPR, Biacore T100; biotinylated antibody captured on streptavidin chip, renalase-1 in solution. How it is done: Binding studies were performed using a Biacore T100. Binding studies were performed at 25° C. using 25 mM Tris pH 8, 150 mM NaCl, 1 mM EDTA, 10% glycerol, 0.005% Tween-20 and 0.1 mg/mL BSA as the running buffer. The biotinylated antibodies were captured on individual streptavidin sensor chip flow cells as shown below. Because the study took two sensor chips, the analysis of two of the mAbs on the second sensor chip was repeated to gather more data. Renalase-1 was tested at 50 nM as the highest concentration in a three-fold dilution series. Each of 5 concentrations was tested in duplicate. Bound complexes were regenerated with a short pulse of 1/1000 phosphoric acid.
On the technique in general: In SPR one partner is held on a chip, and binding of the other changes the refractive index at the surface.
Molecule B1 yielded a Kd of 2.25 nM, a koff of 0.000102 s⁻¹ and a kon of 45300 M⁻¹ s⁻¹.
In turn, B2 showed a Kd of 2.41 nM, a koff of 9.47e-05 s⁻¹ and a kon of 39300 M⁻¹ s⁻¹.
In the case of B3, the Kd was 0.316 nM, the koff worked out at 2.04e-05 s⁻¹ and the kon is 64700 M⁻¹ s⁻¹.
For B4, in that order: 2.67 nM, 4.67e-05 s⁻¹ and 17500 M⁻¹ s⁻¹.
